# Experimental data as given in paper PMC3855848 (Chemistry & biology, 2013).
# Columns and labels:
# [1] = biological target: actKR (actinorhodin type II polyketide ketoreductase) (Streptomyces coelicolor, UniProt P16544, R65A); experiment: NADPH fluorescence titration; format: binding
# [2] = biological target: actKR (actinorhodin type II polyketide ketoreductase) (Streptomyces coelicolor, UniProt P16544, R93A); experiment: NADPH fluorescence titration; format: binding
# [3] = biological target: actKR (actinorhodin type II polyketide ketoreductase) (Streptomyces coelicolor, UniProt P16544); experiment: NADPH fluorescence titration; format: binding
# [4] = biological target: actKR (actinorhodin type II polyketide ketoreductase) (Streptomyces coelicolor, UniProt P16544, R38A); experiment: NADPH fluorescence titration; format: binding
# [5] = biological target: actKR (actinorhodin type II polyketide ketoreductase) (Streptomyces coelicolor, UniProt P16544, R177A); experiment: NADPH fluorescence titration; format: binding
# [6] = biological target: actKR (actinorhodin type II polyketide ketoreductase) (Streptomyces coelicolor, UniProt P16544, R220A); experiment: NADPH fluorescence titration; format: binding
# purified protein = substrate: O=C1CCC[C@H]2CCCC[C@H]12; experiment: purified protein; format: biochemical, Streptomyces coelicolor; details: co-substrate NADPH
# Sequence of actKR (actinorhodin type II polyketide ketoreductase) (Streptomyces coelicolor, UniProt P16544, R177A) (P16544 whole entry R177A): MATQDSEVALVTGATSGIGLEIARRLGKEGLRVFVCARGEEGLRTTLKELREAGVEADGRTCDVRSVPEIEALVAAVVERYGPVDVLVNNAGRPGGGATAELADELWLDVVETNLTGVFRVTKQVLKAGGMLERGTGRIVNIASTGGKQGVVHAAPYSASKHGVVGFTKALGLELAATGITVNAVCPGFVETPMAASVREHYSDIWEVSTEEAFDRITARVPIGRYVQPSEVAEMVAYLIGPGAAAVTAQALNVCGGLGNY
# Sequence of actKR (actinorhodin type II polyketide ketoreductase) (Streptomyces coelicolor, UniProt P16544, R38A) (P16544 whole entry R38A): as the sequence (P16544 whole entry R177A) above, with R38A, A177R counted along it
# Sequence of actKR (actinorhodin type II polyketide ketoreductase) (Streptomyces coelicolor, UniProt P16544, R65A) (P16544 whole entry R65A): as the sequence (P16544 whole entry R177A) above, with R65A, A177R counted along it
# Sequence of actKR (actinorhodin type II polyketide ketoreductase) (Streptomyces coelicolor, UniProt P16544, R93A) (P16544 whole entry R93A): as the sequence (P16544 whole entry R177A) above, with R93A, A177R counted along it
# Sequence of actKR (actinorhodin type II polyketide ketoreductase) (Streptomyces coelicolor, UniProt P16544, R220A) (P16544 whole entry R220A): as the sequence (P16544 whole entry R177A) above, with A177R, R220A counted along it
Molecule,Kd [1],Kd [2],Kd [3],Kd [4],Kd [5],Kd [6],Km (purified protein),kcat (purified protein),kcat/Km (purified protein)
NC(=O)C1=CN([C@@H]2O[C@H](COP(=O)(O)OP(=O)(O)OC[C@H]3O[C@@H](n4cnc5c(N)ncnc54)[C@H](OP(=O)(O)O)[C@@H]3O)[C@@H](O)[C@H]2O)C=CC1 [NADPH],1830 ± 210 nM,6430 ± 680 nM,1520 ± 90 nM,4300 ± 400 nM,1170 ± 100 nM,1990 ± 160 nM,–,–,–
actKR (actinorhodin type II polyketide ketoreductase) (Streptomyces coelicolor A3(2); F189A) (protein) MATQDSEVALVTGATSGIGLEIARRLGKEGLRVFVCARGEEGLRTTLKELREAGVEADGRTCDVRSVPEIEALVAAVVERYGPVDVLVNNAGRPGGGATAELADELWLDVVETNLTGVFRVTKQVLKAGGMLERGTGRIVNIASTGGKQGVVHAAPYSASKHGVVGFTKALGLELARTGITVNAVCPGAVETPMAASVREHYSDIWEVSTEEAFDRITARVPIGRYVQPSEVAEMVAYLIGPGAAAVTAQALNVCGGLGNY,–,–,–,–,–,–,8630 ± 2010 µM,0.049 ± 0.005 s⁻¹,5.7 ± 1.5 M⁻¹ s⁻¹
actKR (actinorhodin type II polyketide ketoreductase) (Streptomyces coelicolor A3(2); M194W) (protein) MATQDSEVALVTGATSGIGLEIARRLGKEGLRVFVCARGEEGLRTTLKELREAGVEADGRTCDVRSVPEIEALVAAVVERYGPVDVLVNNAGRPGGGATAELADELWLDVVETNLTGVFRVTKQVLKAGGMLERGTGRIVNIASTGGKQGVVHAAPYSASKHGVVGFTKALGLELARTGITVNAVCPGFVETPWAASVREHYSDIWEVSTEEAFDRITARVPIGRYVQPSEVAEMVAYLIGPGAAAVTAQALNVCGGLGNY,–,–,–,–,–,–,3220 ± 650 µM,0.43 ± 0.06 s⁻¹,130 ± 30 M⁻¹ s⁻¹
actKR (actinorhodin type II polyketide ketoreductase) (Streptomyces coelicolor A3(2); V198A) (protein) MATQDSEVALVTGATSGIGLEIARRLGKEGLRVFVCARGEEGLRTTLKELREAGVEADGRTCDVRSVPEIEALVAAVVERYGPVDVLVNNAGRPGGGATAELADELWLDVVETNLTGVFRVTKQVLKAGGMLERGTGRIVNIASTGGKQGVVHAAPYSASKHGVVGFTKALGLELARTGITVNAVCPGFVETPMAASAREHYSDIWEVSTEEAFDRITARVPIGRYVQPSEVAEMVAYLIGPGAAAVTAQALNVCGGLGNY,–,–,–,–,–,–,15500 ± 1490 µM,0.24 ± 0.01 s⁻¹,16 ± 2 M⁻¹ s⁻¹
actKR (actinorhodin type II polyketide ketoreductase) (Streptomyces coelicolor A3(2)) (protein) MATQDSEVALVTGATSGIGLEIARRLGKEGLRVFVCARGEEGLRTTLKELREAGVEADGRTCDVRSVPEIEALVAAVVERYGPVDVLVNNAGRPGGGATAELADELWLDVVETNLTGVFRVTKQVLKAGGMLERGTGRIVNIASTGGKQGVVHAAPYSASKHGVVGFTKALGLELARTGITVNAVCPGFVETPMAASVREHYSDIWEVSTEEAFDRITARVPIGRYVQPSEVAEMVAYLIGPGAAAVTAQALNVCGGLGNY,–,–,–,–,–,–,760 ± 90 µM,2.55 ± 0.12 s⁻¹,3230 ± 320 M⁻¹ s⁻¹
actKR (actinorhodin type II polyketide ketoreductase) (Streptomyces coelicolor A3(2); D109R) (protein) MATQDSEVALVTGATSGIGLEIARRLGKEGLRVFVCARGEEGLRTTLKELREAGVEADGRTCDVRSVPEIEALVAAVVERYGPVDVLVNNAGRPGGGATAELADELWLRVVETNLTGVFRVTKQVLKAGGMLERGTGRIVNIASTGGKQGVVHAAPYSASKHGVVGFTKALGLELARTGITVNAVCPGFVETPMAASVREHYSDIWEVSTEEAFDRITARVPIGRYVQPSEVAEMVAYLIGPGAAAVTAQALNVCGGLGNY,–,–,–,–,–,–,1250 ± 400 µM,0.078 ± 0.01 s⁻¹,62 ± 21 M⁻¹ s⁻¹
actKR (actinorhodin type II polyketide ketoreductase) (Streptomyces coelicolor A3(2); T145A) (protein) MATQDSEVALVTGATSGIGLEIARRLGKEGLRVFVCARGEEGLRTTLKELREAGVEADGRTCDVRSVPEIEALVAAVVERYGPVDVLVNNAGRPGGGATAELADELWLDVVETNLTGVFRVTKQVLKAGGMLERGTGRIVNIASAGGKQGVVHAAPYSASKHGVVGFTKALGLELARTGITVNAVCPGFVETPMAASVREHYSDIWEVSTEEAFDRITARVPIGRYVQPSEVAEMVAYLIGPGAAAVTAQALNVCGGLGNY,–,–,–,–,–,–,420 ± 60 µM,0.18 ± 0.008 s⁻¹,420 ± 60 M⁻¹ s⁻¹
